Experimental data published in publication PMC6838198, “Insights into the assembly and architecture of a Staufen-mediated mRNA decay (SMD)-competent mRNP” (Nature Communications, 2019).

T1: GST-UPF1CH (human, UniProt Q92900-2 115-272)
T1 construct: human UPF1, N-terminal cysteine-histidine-rich (CH) domain; also called UPF1CH domain; source: E. coli BL21 (DE3) STAR pRARE, purified (Ni-NTA, heparin, SEC)
T1 sequence (looked up): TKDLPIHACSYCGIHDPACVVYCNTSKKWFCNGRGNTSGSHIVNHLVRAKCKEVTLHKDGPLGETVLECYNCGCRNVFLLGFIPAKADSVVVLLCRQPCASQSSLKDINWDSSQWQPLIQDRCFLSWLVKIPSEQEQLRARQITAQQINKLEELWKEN


Assays:
[1] = molecular target: Stau1 dsRBD2-3-4-dd (human); test: SEC-MALS; about 350 µg of each Stau1 construct on Superdex 200 10/300; 20 mM HEPES pH 7.5, 150 mM NaCl, 0.02% NaN3; dimer to monomers
[2] = molecular target: GST-UPF1 (CH domain and helicase core) (human) (UniProt Q92900); test: pull-down; as the GST pull-down, with UPF2 added as a third purified protein
[3] = molecular target: the molecule itself; test: SEC; analytical SEC of full-length Stau1 alone; monomer and dimer peaks
GST-UPF1CH [4] = molecular target: T1, GST-UPF1CH; test: pull-down; as the GST pull-down, with UPF2 added as a third purified protein; conditions: both partners purified
GST-UPF1CH [5] = molecular target: T1, GST-UPF1CH; test: pull-down; GST-tagged bait and prey mixed in equal amounts, 4 °C 16 h, Glutathione Sepharose; 20 mM HEPES pH 7.5, 150 mM NaCl, 10% glycerol, 0.1% NP-40; eluted with 20 mM glutathione, SDS-PAGE and Coomassie; bands quantified with ImageJ; conditions: both partners purified

Molecule	stoichiometry N [1]	fold increase of co-precipitated Stau1 on addition of UPF2 [2] [fold]	stoichiometry N [3]	fold increase of co-precipitated Stau1 on addition of UPF2 (GST-UPF1CH [4]) [fold]	fold lower amount bound than UPF2s (GST-UPF1CH [5]) [fold]
Stau1 dsRBD2-3-4-dd (domain or fragment)	2				
Stau1, full length (Stau1_63, the longer isoform, 577 residues) (natural protein, human, UniProt O95793 1-577, looked up, human Stau1, longer isoform Stau1_63, 577 residues; In rapid equilibrium between monomer and dimer in solution; source: E. coli BL21 (DE3) STAR pRARE, purified (Ni-NTA, heparin, SEC)) MSQVQVQVQNPSAALSGSQILNKNQSLLSQPLMSIPSTTSSLPSENAGRPIQNSALPSASITSTSAAAESITPTVELNALCMKLGKKPMYKPVDPYSRMQSTYNYNMRGGAYPPRYFYPFPVPPLLYQVELSVGGQQFNGKGKTRQAAKHDAAAKALRILQNEPLPERLEVNGRESEEENLNKSEISQVFEIALKRNLPVNFEVARESGPPHMKNFVTKVSVGEFVGEGEGKSKKISKKNAAIAVLEELKKLPPLPAVERVKPRIKKKTKPIVKPQTSPEYGQGINPISRLAQIQQAKKEKEPEYTLLTERGLPRRREFVMQVKVGNHTAEGTGTNKKVAKRNAAENMLEILGFKVPQAQPTKPALKSEEKTPIKKPGDGRKVTFFEPGSGDENGTSNKEDEFRMPYLSHQQLPAGILPMVPEVAQAVGVSQGHHTKDFTRAAPNPAKATVTAMIARELLYGGTSPTAETILKNNISSGHVPHGPLTRPSEQLDYLSRVQGFQVEYKDFPKNNKNEFVSLINCSSQPPLISHGIGKDVESCHDMAALNILKLLSELDQQSTEMPRTGNGPMSVCGRC		3.3	2	2.3	3.3
